In publication PMC7260716, “Transcriptional analysis of arogenate dehydratase genes identifies a link between phenylalanine biosynthesis and lignin biosynthesis”:

B1: probe A2 (PADT-A 281-370) (dsDNA)
DNA 1: ACAACAGACTGGTAAGGCACACGTGCTTCCACGAGATCCACTAACTTGCGCGGGTGTTTACACACCTAACCACTCCGGAGCTTCCATGCT
DNA 2: AGCATGGAAGCTCCGGAGTGGTTAGGTGTGTAAACACCCGCGCAAGTTAGTGGATCTCGTGGAAGCACGTGTGCCTTACCAGTCTGTTGT
B2: probe D2 (PADT-D 192-318) (dsDNA)
DNA 1: GCTGGTGAGAAGGGCCAAACCAAAAAAAAACCAAACGAAATCACAGCGTACGATCTAACTAACCGTGTTGAATAGTCCCGTGACGTAGCCGCCGTAATGTGCAACAACCCACCATGGGATGGAGCAG
DNA 2: CTGCTCCATCCCATGGTGGGTTGTTGCACATTACGGCGGCTACGTCACGGGACTATTCAACACGGTTAGTTAGATCGTACGCTGTGATTTCGTTTGGTTTTTTTTTGGTTTGGCCCTTCTCACCAGC
B3: probe A1 (PADT-A 225-329) (dsDNA)
DNA 1: TAACTTGCGCGGGTGTTTACACACCTAACCACTCCGGAGCTTCCATGCTTCATCCACGAGTCAGAGGGGCCTTTCCTCCAACCACCCTAGATCAGCATGAGCTAT
DNA 2: ATAGCTCATGCTGATCTAGGGTGGTTGGAGGAAAGGCCCCTCTGACTCGTGGATGAAGCATGGAAGCTCCGGAGTGGTTAGGTGTGTAAACACCCGCGCAAGTTA

What was measured:
[1] = molecular target: T1, PpMYB8 (Pinus pinaster, UniProt D7GLD4 1-534); assay: EMSA; shift reduced by unlabeled probe; EMSA buffer, salt, pH and temperature not given in material (electrophoresis as in Rueda-López et al. 2008); details: protein: recombinant; label: 5'-biotin
T1 sequence (D7GLD4 entry or part of it): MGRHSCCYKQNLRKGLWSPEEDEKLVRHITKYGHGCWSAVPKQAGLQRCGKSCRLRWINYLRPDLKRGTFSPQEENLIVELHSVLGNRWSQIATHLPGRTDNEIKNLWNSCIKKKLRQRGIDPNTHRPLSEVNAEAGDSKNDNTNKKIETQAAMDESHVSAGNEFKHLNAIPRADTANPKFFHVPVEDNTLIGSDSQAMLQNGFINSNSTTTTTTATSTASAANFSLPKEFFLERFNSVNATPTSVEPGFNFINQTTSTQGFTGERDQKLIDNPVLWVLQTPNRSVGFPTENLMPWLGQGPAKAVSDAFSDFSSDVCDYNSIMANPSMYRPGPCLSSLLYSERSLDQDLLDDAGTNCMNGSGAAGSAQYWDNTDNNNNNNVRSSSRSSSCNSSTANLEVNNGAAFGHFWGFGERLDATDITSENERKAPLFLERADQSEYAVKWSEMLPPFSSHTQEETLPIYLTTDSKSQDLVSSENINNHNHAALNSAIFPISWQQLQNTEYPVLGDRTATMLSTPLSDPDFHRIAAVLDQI

[2] = molecular target: T1, PpMYB8; assay: EMSA; EMSA buffer, salt, pH and temperature not given in material (electrophoresis as in Rueda-López et al. 2008); details: protein: recombinant; label: 5'-biotin

Binder	binding result [1]	binding result [2]
B1	binds	
B2		no binding
B3		no binding
